From the DeepSol protein solubility set

Experiment: soluble on expression in E. coli; label from the status in PepcDB or PDB records

Sequence	soluble on expression in E. coli
MRLIMKPEHSTRGRVIFVGAGPGNPDLLTVRAREVLGSTANAVVDSTVGVGIRAVIAEHLEVPQAKLDAAEAEYERMCAAAKRRKPPRPDAPTAAEITEVSADASVDEVMAVLLPLLDEGDVIRLVQGNPLADSRALDEITAVTQVGADFQIVPGMSLPAAVPAFAGITLGDSYTKTTVSEDTNWDQLATAPLPLILQASKDDLLTIAMELKDRKLPASTPVTVTMNGTTRLQRSFDVTLKTMKSLVKQELDGTLVVTVGVSDRSTFSWWESRALFGWRVLVPRAKDQAGPMSSRIAAYGAIAQEVPTISVEPPRNPAQLERAIKGIVEGRYQWVVFTSVNAVKAVREKIVSFGLDSRAFAGVHIAAVGAKTAAAIREFGITPELIPPRKEHNAAGMVSVFPNYVEGLDPVGRVLLPRADIATDVLVDGLVNLGWEVDDVVAYRTVRAAPPSAEVRDMIKSGDFDAVCFTSASTVRNLVGIAGKPHARTIIACIGPMTAAEAEKQGLRVDVIPEVANVAALVDALAEHVEKLRAAGELPPPRKKRRARRKSKEGAV	not soluble
MRLPCEVVFARYKANAGVNPKPTKSQKGFVILQKLRQTPPQYQITVAVAGDKTGNKFELNKPPIILDKFIAQGKTTITFQTTPAVMVCISKANPEALAQLIEAIRKIVKGENVDIEKVKVKSSDFKPTTITVNNQATYKKQMQSCSEFLKTLKIEPIDLRRPDKAWRFCHNLTRLTLNGNPIGAHNRDLDVFSKLKQLQSLEMRSCSLELIPVPAMCTMFRELPTSISLLDFGDNHLSIFPPIFHLKQLKIINAAHNAIKYLPSRIGVLQNLNTIDVSNNLMTALPYVFSKIPSIEHVGINANDQMVRLEEEIGPIFIRRLLTKVDNIEYTHEGGVDKLGTIAANAIHREECSKSMKFGRQFLPLSLRFDMDDLMFEKPGISSLELCTGCVRLRHIRYIRPLIIQSRQIANSVDVIGRFVTFDRLLCIDCYRRTTSTNNGEPPFQCDYFQFAV	not soluble
MRMGRYFGTSGIREVVNEKLTPELALKVGLALGTYLQEGKVVIGCDTRTSSVMLKNAVISGLLATGIDVIDIGLAPTPLTGFAIRLYNAEAGVTITASHNPPQYNGIKVWDRDGMAYTPDKEHELEKIIESGNFRRVPWNEVGTLKTANPRKEYIEAILREINLKGSYTVVIDAGNGAGSIVSPYLHRELGNRVITLNSDPSGFFVRELEPNKESLSMLEKTVKVLNADIGIAHDGDADRVGVVDENGEFVEYEVMLSLIAGYMLKKYGKGKIVTTVDAGFALDDYIRELGGEVVRTRVGDVAVAEELVKHGGVFGGEPSGTWIMPQWNLTPDGIFASALVLEMIDRLGPIGELAKDVPKYVTLRKKIPCSNELKNKVMNKIADLIPREFSYERIITIDGIRIENDDWWILFRPSGTEPIMRITLEAHTEEMAERLMKKAENLVKSVIKDLSS	soluble
MRMILMFDMPTETAEERKAYRKFRKFLLSEGFIMHQFSVYSKLLLNNTANNAMIGRLKVNNPKKGNITLLTVTEKQFARMVYLHGERNTSVANSDSRLVFLGDSYDQDLEHHHHHH	not soluble
MRMNSQWGFKMKILIMGFEYLPVKVGGLAEALTSIAEALASLGHEVLVFTPSHGRFQGSEIGIIKAFGGKVAIKVHLEENGNLRIYRIGGGLLDHQDVYGPGWEGLIRKTVIFGKASVLLLNELLKSEDLPDVLHFHDWHTVFAGALIKKYFRIPAVFTIHRLNKSKIPAFYFHEAGLPELAPYPDLDPEHTGGYIADIVTTVSRGYLLDEWDFFRNFNGKVTYVFNGIDCSFWNENYLKGSRKERRSSILAKFGMSDGITFMFIGRFDRRQKGVDTLLRAIELLSERPEFKEMRFIIIGMGDPELENWARELEKRYDNVRVLTEMLSREFVRELYGSVDFVIIPSYFEPFGLVSLEAMCLGAIPIASSVGGLRDVIVSIDEDHVDGTGLLVKPGDPWDLANAILRMHSIAMDNEFVEKLRDNCKKRAKSFSWENSAKRYLRAYKGNIDRIFDFAMLEHHHHHH	not soluble
MRMTLAVHTRQYSIHSFNPSAPIPSKVFAEEVYFICKTEEGLTLVVSSELALDSLEQETNWSCLEVLGPLGFSLTGILSKIASTLADVQISIFALSSFDTDYILVKKDCLQNAMTALKKAGYKIIESKLEHHHHHH	not soluble
MRNFDLIRLTEAQWHDRESAHQLRADRLTADHMKRRRAGISHPVYDFLFEYYPVRVAHMKKWHPGVGVGIEGNPPHSRWKGYTTIDDVTVVDVEALKKKRSSTLHYVSNLLKQTQLNPTHFDCFGLHEWAMVYQTSQPRHALPLRLGAQGSNKVVESHNIRCTHFDAFRFFTEPAVPLNFQVLTRENQPSCEQPGCLHAMMDLYKWSAKLGPLIPGDLWLDTFELAWDCRVLDMEASPYDCTDYGLGIVPIETAEGKAEYVRRQRELSERGQLLRQRLVAELDRIDRFTLTS	not soluble
MRNILATILLVVMLFLVACTGNNNQLVSQSELVPENTPVDGNQIKAPEETLSSDSMYSDYNGKNIKFRFPKTWEMTEYQADYEYFIRFNLPTKNKNRAPNQVTIVISDMAEKSKNFDYQNKNIFEQYIENDNTMDISNITVDGCNGYKAVSIESETLYISFEKGDLRYDLIFMSDEGEFLELLPEVESMISSISTY	not soluble
MRNLLQKCFKWQWLVCLAVGCCFSSCKDDEESTSGYDPNKPIVLTDFYPPEGKLATQVILNGSNFGDSKENVKVFFNDKEASVISVKDDRMLVLAPKRASTIEDPECVVKVQVHEQIEEYKQTFDYYIQTTVTTLVGGSTSAQVNPTGTIPLSEAQFRANIDRCICVDQDKNVFFLVDNDGKFAAFMLNEEADKLISLKSDINALFNSPVLGYNSKDDIVYQFWANRDSHEVYYFDPKTDYAPTTAISSISWDDPNFPNIEGFGVWAAKCNFTMGPDGKMYSRMLGGNLVRIDVENARGENLTNGDLVGTKDGSAYGLVFDPQDENVFYFSNNDKHCIYKYDLRTKECACWAGQEGKSGYLDGPIGQAMFNKPGQMCVDSEGNIILTDTENHCIRKITMSTGYVSTLAGKPQNSGYVNGSAEDAQFKKPLGICIDNDDVMYIGDSENRAIRRLAVELEHHHHHH	soluble
MRNPENVLNSLSKHSGNLNYKFERLYRVLFNEEMFYVAYQNIYSKTGNMTAGADGKTIDGMSIDRVEQLIGSLKNETYQPNPSKRTYIPKKNGKKRPLGIPSFDDKLVQEVVRMILEAIYEGSFEHTSHGFRPKRSCHTALIDIQKTFTAVKWFIEGDIKGFFDNINHDVLINILRERIADERFLRLIRKFLNAGYVEDWVFHRTYSGTPQGGIISPILANIYLDKFDKYIKEYINRFNKGVTRKGDARYKLYEQRRYRLAKKLKNEKDVKVRKQMTAEIKRLREERNNYPARNEMDSSIKRLKYVRYADDFLIGITGNLEDCKTVKEDIKNYLNEALKLELSDEKTLITNAQKPAKFLGYDVFIRRCNDLRKDKYGKTVRAFGHKPVLYLNFETMRKKLFDYKAARIAVVNGKEVWKSIVRTYMLNLDDLEIVSQFNAEIRGFYNYYSIANNSYVINSFYHIMSYSMYKVFANKYKSSVKKILLKYKKNKVFQVAYENSKGKTLYQSFYHDGFKRKKVAGNIYCDTIPRTVSITGGRNSLMERLKLQVCELCGATDKLEMHHVRKLKDLKGKSDWEKKMIARRRKTLAVCSKCHAKIDPDRRIRLNLEHHHHHH	soluble
MRPFILLALLVSVTVAFNIFRDEVVPEEQLLAVRRTTRDASDSSSDSDEKDDAKTTVTVSFGLSGSQAWPIFQFFSFALKTKKKSKFFRRSGYELRPRP	not soluble
MRPLKVALVNIPLRVPGSDAWISVPPQGYGGIQWVVANLMDGLLELGHEVFLLGAPGSPAGRPGLTVVPAGEPEEIERWLRTADVDVVHDHSGGVIGPAGLPPGTAFISSHHFTTRPVNPVGCTYSSRAQRAHCGGGDDAPVIPIPVDPARYRSAADQVAKEDFLLFMGRVSPHKGALEAAAFAHACGRRLVLAGPAWEPEYFDEITRRYGSTVEPIGEVGGERRLDLLASAHAVLAMSQAVTGPWGGIWCEPGATVVSEAAVSGTPVVGTGNGCLAEIVPSVGEVVGYGTDFAPDEARRTLAGLPASDEVRRAAVRLWGHVTIAERYVEQYRRLLAGATWK	soluble
MRPNYTVSSSGTNKGSVLAVCNTTYYKSNKLISKNEITLYKGFRSLSTNHKIETIVHEFGHGFGLGHVKTKNAIMLDKGFINKTKPQTDDFNGIKALYKLEHHHHHH	not soluble
MRREERNMDKLLISFLLSLFMVYFPPSDVVLPSQFEASTDSYVPMSSYPQETQSAKTPSPGSMHPAELIKEYSPLAQSVRQLSVKPLDEPLINRLEKALAVPVKYQSNYLRILEHHHHHH	not soluble
MRREIRRICGFDVSDRWINLFRKKHGIRYFSGRRHADKKDKTIILSALDVTKMKTTNFLKKRRILRTSRKEYADVDLQVNKEIVRRQNKGERLTNPWIKEYAQYVAYQLHPEIPDIAKFFDANWLYRFKRRYCVELKVALNDFLYDLNSIFQPRSPEENTRSTPQTTSNEDIKSSATSMEVVTSPNYLFPHHYFNLFDQNGCGASIVKQEPTREN	not soluble
MRRGNRRTPGPVCRQAFRAEFTAIHAPVVFFMSCNRQIVRSLRQQIPSFECVPGCHDCCGPVTTSPEEMSRLPRKTAAEQEAAMDELNCVHLGPNGCTVYDERPLICRLFGTTPSLPCPNGRRPVEMIHPRVEKQIHDYMASTRQVLVLEHHHHHH	not soluble
MRRIAIVGGGQAGLPLAFGLLDKGYEVTVVSNRTPDDIRRGKVMSSQCMFDPALQIERELGINGWEADCPPVEGIGFAVPHPEQAGAKAIEWSARLDRPAQSVDQRVKMPAWLEQVQARGGRLLLQDAGIAELEALAQSHDLVILAAGKGEVVKLFERDAARSPFDKPQRALALTYVHGLEPAPDYSRVAFNLIPGVGEYFVFPALTLSGPCDIMVFEGVPGGPLDCWRDVRTPQEHLAASRRFLQTYLPWEADRARNVELTDDKGILAGAFAPTVRKPVMTLPSGRLVFGLGDAVVTNDPITGQGANNATKACKVYLDAILARGEQPYTRDWMEATFEQFWDYAQWVVQWTNSLLTPPPPHILGLLGTAEQAPSLASTIANGFNHPPSYFPWWADAQACEGFIAQHQRTPATATALEHHHHHH	not soluble
MRRLLLLVILFGCMSVINLAAGCNAQICTCPGGGYVTYGQYCPVNTPSYSAPPDAPPVDMYYFILDIKNNSYQLVDLKTKNFLTALDRSLSCDRSTQVCTVVSIREYLAVVVSEDNRLFIGKADAFYKGTGKKAEKAAIDDCKKGKEANGNGVMGDGIKGKKCRLIRLFSPNFKLENIETKQKYDLKVTGSL	not soluble
MRRLNRFKAPDEKVNTLFQVYKTISFWKVVKNTVVVEFGRFFPWMGGKRNIYRACLGMKIGKKTAIAYKVMPDLFFPEKITIGENSIIGYHTTILTHEYLLSEYHVGEVVIGKNVMVGANVTILPGIEIGDGAIVAAGAVVSKDVPPESFAYGNPLVIKEKAALEHHHHHH	soluble
MRRNSKERKNRATRRSQGSYQEIIGRTWIFRGAHRGRVTRRNIIWHELIGLRVRIVGSTHPAFVGIEGYVIDETRNMLVIAGDRIWKVPKDVCIFEFEADDGTKIKIPGERLVGRPEMRLKKRWKKWLEHHHHHH	not soluble
MRRVFSSQAIQTAIEKSLPDLQKIVGNSSVRTQESVRRQFARDESHFIAPPPAVVLEPTNVEQVSEILKLCNDRAIPVVPFGTGTGLEGGSMSTLGGICISTQQIIGDPVLREQDFVCSVKPSTTRIALNDAIKNSGLFFPVDPGADASVCGMVATSASGTNAIRYGTMKENVVNLEVVLADGTIIDTKGKGRCPRKSSAGFNFTELFVGSEGTLGIITEATVKVHPRPQFLSAAVCSFPTVHEAASTVVEVLQWNIPVARIELLDTVQIQACNSYSSLNLRESPTLFIEFHGSNEKEVADQTSAVEDICKSHEALDFDSGASPDKRATLWKARHNAYYAALAMRTGARGFTTDVCVPISKLADVISETRSDLDEHEILGTVVGHVGDGNFHVILPTIEEDKTEHRKIQSFSDRLVRRALAADGTCTGEHGIGLGKRKYLREELGENTVRLMHTIKHALDPNNIMNPGKVLPEL	soluble
